In US20050226885A1:
Values joined by “and” are separate entries in the source; they are usually repeats but may differ in a detail not shown here. Equal values may be shown once.

Molecular target: C215 antigen (human GA-733 antigen recognized by the C215 mAb) (human) (UniProt P16422)
Assay: FACS on Colo205 cells

Sequence of UniProt P16422 (P16422 24-314): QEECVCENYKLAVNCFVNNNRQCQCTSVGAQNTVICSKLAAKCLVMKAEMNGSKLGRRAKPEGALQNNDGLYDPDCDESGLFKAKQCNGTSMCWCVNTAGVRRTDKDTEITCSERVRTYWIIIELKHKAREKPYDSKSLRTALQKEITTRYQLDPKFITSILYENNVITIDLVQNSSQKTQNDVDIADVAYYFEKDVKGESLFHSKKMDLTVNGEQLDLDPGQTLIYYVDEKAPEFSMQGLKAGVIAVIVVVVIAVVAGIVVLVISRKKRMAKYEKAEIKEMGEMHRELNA

## CD80-C215Fab (from UniProt P33681 35-242)
  fold lower binding than that of C215Fab-SEA: 50 fold lower and 100 fold lower
  fold reduction of binding compared to C215Fab-SEA: 100 fold reduced
